T1: ARG2 (Homo sapiens, UniProt P78540)
T1 sequence (P78540 23-354): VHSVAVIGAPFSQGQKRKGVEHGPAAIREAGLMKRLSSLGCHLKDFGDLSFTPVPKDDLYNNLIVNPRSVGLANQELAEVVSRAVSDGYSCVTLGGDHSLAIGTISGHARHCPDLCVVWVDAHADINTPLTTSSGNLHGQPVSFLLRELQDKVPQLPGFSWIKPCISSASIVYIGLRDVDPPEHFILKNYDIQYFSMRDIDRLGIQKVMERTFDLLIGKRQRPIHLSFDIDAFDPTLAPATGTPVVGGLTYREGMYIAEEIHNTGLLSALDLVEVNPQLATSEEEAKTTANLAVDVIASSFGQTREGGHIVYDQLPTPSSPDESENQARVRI

T2: trimeric human ARG2 (Homo sapiens, UniProt P78540)
T2 construct: human ARG2 (aa23-354); His10 (C); made in house; host or cells: E. coli BL21 (DE3)
T2 sequence (P78540 23-354): T1 sequence (P78540 23-354)

B1: C0021139: anti-ARG2 antibody, VH SEQ ID NO: 212, VL SEQ ID NO: 217 (antibody, listed as Homo sapiens, V domains shown)
VH: EVQLLESGGGLVQPGGSLRLSCAASGFTFQYDYQVWVRQAPGKGLEWVSAISGSGGSTYYADSVKGRFTISRDNSKNTLYLQMNSLRAEDTAVYYCARLRADLGLYMDLWGRGTLVTVSS
VL: QSVLTQPPSVSAAPGQKVTISCSGSSSNIGNHYVSWYQQLPGTAPKLLIYDNSERTSGIPDRFSGSKSGTSATLGITGLQTGDEADYYCGTWDELTSNLVFGGGTKLTVL
modifications: C0021139
B2: C0020065: anti-ARG2 antibody, alternate lead isolation clone, VH SEQ ID NO: 2, VL SEQ ID NO: 7 (antibody, listed as Homo sapiens, V domains shown)
VH: GVNLRESGGGVVQPGRSLRLSCAASGFTFSSYAMHWVRQAPGKGLEWVAVISYDGSNKYYVDSVKGRFTISRDNSKNTLYLQMNSLRAEDTAVYYCARDSSQLWFDYWGRGTLVTVSS
VL: QSVVTQPPSVSGAPGQRVTISCTGSSSNIGTGYDVHWYQQLPGTAPKLLIYGNSNRPSGVPDRFSGSKSGTSASLAITGLQAEDEADYYCQSYDSSLSGSVVFGGGTQLTVL
modifications: C0020065

Columns and labels:
ARG2 = biological target: T1, ARG2; test: Dynamic light scattering of ARG2-Fab complex sizes; parameters: human ARG2 (aa23-354); His10 (C); made in house; host or cells: E. coli BL21 (DE3); details: FIG. 23B
Description: ARG2 and Fabs were analysed at concentrations of 8 μM (referring to monomers) in buffer containing 25 mM tris at pH 7.4 and 150 mM NaCl (FIG. 23). ARG2-Fab complexes were formed by mixing both ARG2 and Fabs at concentrations of 8 μM (referring to monomers) and incubation on ice for 1 h. Dynamic light scattering (DLS) was performed on a Zetasizer Ultra (Malvern Panalytical) using multiangle DLS. Data was collected in a 3×3 mm cuvette (Hellma Analytics) using a sample volume of 30 μl. Volume weighted size-distributions were corrected for refractive index, viscosity, and background scatter of the buffer by the instrument software.

trimeric human ARG2 = biological target: T2, trimeric human ARG2; test: Human trimeric ARG2 enzyme inhibition assay (urea production); assay type: biochemical
Description: Unpurified anti-ARG2 scFv fragments from periplasmic preparations were screened in an ARG2 enzyme inhibition assay using a Pherastar plate reader (BMG Labtech, Germany). In this assay, the ability of unpurified scFv to inhibit the enzymatic activity of trimeric ARG2 was determined by measuring the production of urea, the product of L-arginine turnover by ARG2.
Selection outputs were screened as unpurified bacterial periplasmic extracts containing scFv, prepared in 200 mM TES buffer pH 7.4, 0.5 mM EDTA and 0.5 M sucrose. 10 μl of unpurified scFv were added to a Greiner Bio-One® 384 well assay plate (Greiner Bio-one, UK; cat: 781901). This was followed by the addition of 5 μl of 1.6 μg/ml trimeric human ARG2 that had been diluted in 40 mM MnCl2, 100 mM tris-HCl, pH7.4 (4× enzyme buffer). […]
Urea was detected by the simultaneous addition of equal volumes of O-Phthaldialdehyde (1.5 mM O-Phthaldialdehyde, 7% H2SO4, 0.03% Brij L23) and N-(1-Napthyl)ethylenediamine (1.66 mM N-(1-Napthyl)ethylenediamine, 81 mM Boric acid, 21% H2SO4, 0.03% Brij L23) followed by an 18 minute incubation at room temperature before the colorimetric product was quantified on the Pherastar by measuring absorbance at 505 nm. […]
Data were analysed by calculating % maximum (max) control for each sample using the 505 nm absorbance data. % max control was determined according to equation 2. […]
IC50 values were determined by testing a dilution series of the purified scFv, prepared in TBS, in the ARG2 enzyme inhibition assay described in section 1.5, substituting the unpurified scFv periplasmic preparation with the purified scFv.
Background control wells were defined for each plate by the omission of substrate. […] Data were analysed by calculating % maximum (max) control for each sample. % max control was determined according to equation 1 detailed in section 1.5. […]
Data were again analysed by calculating % Max control values for each sample. […]

[1] = test system: recombinant cynomolgus monkey trimeric ARG2 enzyme; test: Direct binding HTRF assay, cynomolgus trimeric ARG2; details: purified scFv, FIG. 1C
Sequence of recombinant cynomolgus monkey trimeric ARG2 enzyme (as listed by the source): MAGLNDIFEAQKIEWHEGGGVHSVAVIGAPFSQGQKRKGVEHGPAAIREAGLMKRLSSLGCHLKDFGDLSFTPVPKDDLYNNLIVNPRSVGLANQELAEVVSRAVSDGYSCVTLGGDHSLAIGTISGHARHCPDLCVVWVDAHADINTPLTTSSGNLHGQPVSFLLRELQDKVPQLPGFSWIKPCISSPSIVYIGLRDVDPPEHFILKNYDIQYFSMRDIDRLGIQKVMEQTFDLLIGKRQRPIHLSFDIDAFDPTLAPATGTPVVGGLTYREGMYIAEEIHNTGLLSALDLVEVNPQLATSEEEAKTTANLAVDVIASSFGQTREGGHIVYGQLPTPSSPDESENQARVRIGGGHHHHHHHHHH

Molecule | increase in average hydrodynamic radius (Rh) of ARG2-Fab complexes in comparison with ARG2-C0020187 Fab complexes (ARG2) [nm] | inhibition of the activity of human trimeric ARG2 (trimeric human ARG2; purified recombinant human IgG1, FIG. 3) | inhibition of the activity of human trimeric ARG2 (trimeric human ARG2; purified scFv, FIG. 2) | binding to biotinylated recombinant cynomolgus trimeric ARG2 enzyme [1]
B1 | 1.5 |  |  | 
B2 |  | inhibited | inhibited | bound
